For test [1], the target named is T1, human amylin 3(a) receptor (human calcitonin receptor plus RAMP-3) (human, UniProt P30988 25-474; O60896 24-148, limits assumed).
T1 construct: whole, on cells; Whole cells in the luciferase assay (Assay II a); also called hAmylin-R; human amylin receptor
T1 sequence (looked up) 1: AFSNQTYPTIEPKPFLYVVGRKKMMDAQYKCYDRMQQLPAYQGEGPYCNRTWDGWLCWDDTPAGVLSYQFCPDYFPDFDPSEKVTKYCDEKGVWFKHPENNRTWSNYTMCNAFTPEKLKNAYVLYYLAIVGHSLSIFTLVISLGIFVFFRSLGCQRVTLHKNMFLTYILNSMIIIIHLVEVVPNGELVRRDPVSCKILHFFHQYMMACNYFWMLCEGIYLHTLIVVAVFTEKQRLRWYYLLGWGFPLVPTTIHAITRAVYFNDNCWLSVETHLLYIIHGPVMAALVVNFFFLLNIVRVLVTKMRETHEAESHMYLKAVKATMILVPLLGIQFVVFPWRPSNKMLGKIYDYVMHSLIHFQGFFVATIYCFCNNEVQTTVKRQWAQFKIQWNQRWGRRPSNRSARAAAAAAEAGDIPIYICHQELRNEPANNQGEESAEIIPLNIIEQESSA
T1 sequence (looked up) 2: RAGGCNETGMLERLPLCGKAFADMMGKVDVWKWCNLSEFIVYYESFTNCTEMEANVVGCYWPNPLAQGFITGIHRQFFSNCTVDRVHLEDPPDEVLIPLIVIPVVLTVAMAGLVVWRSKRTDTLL
In words: SPA competition binding, displacement of 125I-rat amylin from membranes of Amylin 3(a)/CRE-luc BHK cells (Assay V). Summed up:
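Cell membranes were prepared by homogenisation in Na-HEPES/EDTA buffer, pH 7.4, and stored at −80° C. They were then coupled to SPA beads at 35 ng/μL final and exposed to compounds in assay buffer containing CaCl2, MgCl₂, OA and Tween20. After 120 min at 25° C, plates were counted and IC₅₀ derived.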
A general note: In a radioligand displacement assay an active substance lowers the binding of a labelled ligand.

Test [2] deals with T1, human amylin 3(a) receptor (human …). In words: cell-based or functional assay.
The target in test [3] is T2, human calcitonin receptor (human, UniProt P30988 25-474).
T2 sequence (looked up): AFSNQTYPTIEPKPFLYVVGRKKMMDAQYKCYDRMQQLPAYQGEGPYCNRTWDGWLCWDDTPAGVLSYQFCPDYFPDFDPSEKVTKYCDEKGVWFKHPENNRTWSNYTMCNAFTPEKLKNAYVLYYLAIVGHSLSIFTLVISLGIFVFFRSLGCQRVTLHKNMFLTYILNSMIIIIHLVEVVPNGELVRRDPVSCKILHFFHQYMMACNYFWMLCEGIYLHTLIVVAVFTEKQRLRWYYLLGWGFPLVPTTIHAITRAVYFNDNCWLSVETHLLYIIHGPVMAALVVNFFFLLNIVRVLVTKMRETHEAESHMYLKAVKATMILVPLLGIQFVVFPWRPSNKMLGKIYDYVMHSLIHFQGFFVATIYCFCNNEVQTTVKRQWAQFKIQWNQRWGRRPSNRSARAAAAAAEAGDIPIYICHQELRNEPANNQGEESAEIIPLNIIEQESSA
In words: cell-based or functional assay.

Numbered stars: 1 amine (or outer) side, 2 acyl side, 3 side chain; on linkers, the order of the positions; unused ones are H or OH. Bridge positions count the residues as written; N and C are the ends. Side chains are listed from the residue outwards. Ends that are not written are not given here. * marks the point of attachment. C20 diacid = O=C(O)CCCCCCCCCCCCCCCCCCC(=O)*; γGlu = O=C(O)[C@H](CCC(=O)[*:2])N[*:1]

B1: N^ε1-[(4S)-4-carboxy-4-[[(4S)-4-carboxy-4-(19-carboxynonadecanoylamino)butanoyl]amino]butanoyl]-[Glu14,Arg17,Pro21,Pro27,His34]-h-amylin (peptide)
peptide: K([γGlu-γGlu-C20 diacid])CNTATCATQRLAEFLRHSSPNFGAIPSSTNVGHNTY-NH2
modifications: disulfide 2-7; N-terminus assumed
SMILES: CC[C@H](C)[C@H](NC(=O)[C@H](C)NC(=O)CNC(=O)[C@H](Cc1ccccc1)NC(=O)[C@H](CC(N)=O)NC(=O)[C@@H]1CCCN1C(=O)[C@H](CO)NC(=O)[C@H](CO)NC(=O)[C@H](Cc1c[nH]cn1)NC(=O)[C@H](CCCNC(=N)N)NC(=O)[C@H](CC(C)C)NC(=O)[C@H](Cc1ccccc1)NC(=O)[C@H](CCC(=O)O)NC(=O)[C@H](C)NC(=O)[C@H](CC(C)C)NC(=O)[C@H](CCCNC(=N)N)NC(=O)[C@H](CCC(N)=O)NC(=O)[C@@H](NC(=O)[C@H](C)NC(=O)[C@@H]1CSSC[C@H](NC(=O)[C@@H](N)CCCCNC(=O)CC[C@H](NC(=O)CC[C@H](NC(=O)CCCCCCCCCCCCCCCCCCC(=O)O)C(=O)O)C(=O)O)C(=O)N[C@@H](CC(N)=O)C(=O)N[C@@H]([C@@H](C)O)C(=O)N[C@@H](C)C(=O)N[C@@H]([C@@H](C)O)C(=O)N1)[C@@H](C)O)C(=O)N1CCC[C@H]1C(=O)N[C@@H](CO)C(=O)N[C@@H](CO)C(=O)N[C@H](C(=O)N[C@@H](CC(N)=O)C(=O)N[C@H](C(=O)NCC(=O)N[C@@H](Cc1c[nH]cn1)C(=O)N[C@@H](CC(N)=O)C(=O)N[C@H](C(=O)N[C@@H](Cc1ccc(O)cc1)C(N)=O)[C@@H](C)O)C(C)C)[C@@H](C)O
notes: also called compound 87
As for B1, the IC50 – broadly, the point on the concentration scale where inhibition reaches its midpoint – in test [1] stood at 0.633 nM. Further, in test [2], the “Ratio hCT/hAmylin funct.” value turned out to be 3.8 and the “hAmylin-R funct. EC50” value is 285 pM. The “hCTR funct. EC50” value in test [3] came out at 1.09 nM.

B2: N^ε1-[(4S)-4-carboxy-4-[[(4S)-4-carboxy-4-(19-carboxynonadecanoylamino)butanoyl]amino]butanoyl]-[Glu14,Arg17,Pro21,Pro27,Pro34,Arg35]-h-amylin (peptide)
peptide: K([γGlu-γGlu-C20 diacid])CNTATCATQRLAEFLRHSSPNFGAIPSSTNVGPRTY-NH2
modifications: disulfide 2-7; N-terminus assumed
SMILES: CC[C@H](C)[C@H](NC(=O)[C@H](C)NC(=O)CNC(=O)[C@H](Cc1ccccc1)NC(=O)[C@H](CC(N)=O)NC(=O)[C@@H]1CCCN1C(=O)[C@H](CO)NC(=O)[C@H](CO)NC(=O)[C@H](Cc1c[nH]cn1)NC(=O)[C@H](CCCNC(=N)N)NC(=O)[C@H](CC(C)C)NC(=O)[C@H](Cc1ccccc1)NC(=O)[C@H](CCC(=O)O)NC(=O)[C@H](C)NC(=O)[C@H](CC(C)C)NC(=O)[C@H](CCCNC(=N)N)NC(=O)[C@H](CCC(N)=O)NC(=O)[C@@H](NC(=O)[C@H](C)NC(=O)[C@@H]1CSSC[C@H](NC(=O)[C@@H](N)CCCCNC(=O)CC[C@H](NC(=O)CC[C@H](NC(=O)CCCCCCCCCCCCCCCCCCC(=O)O)C(=O)O)C(=O)O)C(=O)N[C@@H](CC(N)=O)C(=O)N[C@@H]([C@@H](C)O)C(=O)N[C@@H](C)C(=O)N[C@@H]([C@@H](C)O)C(=O)N1)[C@@H](C)O)C(=O)N1CCC[C@H]1C(=O)N[C@@H](CO)C(=O)N[C@@H](CO)C(=O)N[C@H](C(=O)N[C@@H](CC(N)=O)C(=O)N[C@H](C(=O)NCC(=O)N1CCC[C@H]1C(=O)N[C@@H](CCCNC(=N)N)C(=O)N[C@H](C(=O)N[C@@H](Cc1ccc(O)cc1)C(N)=O)[C@@H](C)O)C(C)C)[C@@H](C)O
notes: also called compound 110
Regarding B2, in test [1], the half-inhibitory concentration (IC50) turned out to be 0.326 nM. Moreover, the “hAmylin-R funct. EC50” value in test [2] stood at 278 pM. Also, the “hCTR funct. EC50” value in test [3] is 8.16 nM.

The record behind these values is patent US20140087995A1 (published 2014).
